Assay results: US20240034813A1 (Janssen / Centocor, published 2024)

Assays:
[1] = target: T1, recombinant human EGFR/ErbB1/HER1 with C-terminal His tag, Cy5-labeled (human, UniProt P00533 25-645, Cy5 label (reacted with Cy5 Mono NHS Ester; sites not stated)); experiment: competitive TR-FRET (Eu-amivantamab/Cy5-EGFR), EC50 ratio vs Reference Material; Ex. 11 drug product, 9 months at 5 C
T1 construct: Commercial protein; also called Cy5-EGFR; Cy5-labeled EGFR antigen; not shown: C-terminal His tag
Source text: (§1) In this procedure, varying concentrations of unlabeled bispecific EGFR-cMet antibody sample compete with donor fluorophore (Europium (Eu) chelate) labeled bispecific EGFR-cMet antibody for binding to an acceptor fluorophore (Cy5)-labeled EGFR antigen. Excitation of the donor fluorophore results in a transfer of energy to the bound acceptor fluorophore (FRET process). The resultant FRET is detected by emission of light at 665 nm using a microplate reader capable of measuring time-resolved fluorescence. Sample dose response curves are compared to the RM.
(§2) EGFR Binding Materials and Methods. Certified commercial EGFR, a recombinant human EGFR/ErbB1/HER1 with C-terminal His tag is reacted with certified commercial Cy5 Mono NHS Ester to produce Cy5-labeled EGFR. Validated bispecific EGFR-cMet antibody is reacted with certified commercial Europium (Eu) chelate to produce Eu-labeled bispecific EGFR-cMet antibody. […] Fluorescence is then measured by spectrophotometry at 665 nm, plotted against antibody concentration and analyzed by a four-parameter logistic model. The antibody concentration required to obtain half of the maximum fluorescence response (EC50) is determined for RM, assay control and samples. The potencies of assay control and samples are calculated based on the ratio of the sample (or control) and RM EC50 values and reported as a percentage activity relative to the RM.

[2] = target: T1, recombinant human EGFR/ErbB1/HER1 with …; experiment: competitive TR-FRET (Eu-amivantamab/Cy5-EGFR), EC50 ratio vs Reference Material; Ex. 11 drug product, 0 months, 25 C table
Source text: as §1, §2

[3] = target: T2, recombinant cMet/HGFR with c-terminal His-tag, Cy5-labeled (UniProt P08581 25-932, limits assumed, Cy5 label (reacted with Cy5 Mono NHS Ester; sites not stated)); experiment: competitive TR-FRET (Eu-amivantamab/Cy5-c-MET), EC50 ratio vs Reference Material; Ex. 11 drug product, 0 months, 25 C table
T2 construct: Commercial protein; also called Cy5-c-MET; Cy5-labeled c-MET antigen; not shown: C-terminal His-tag
Source text: as §1, with “(Cy5)-labeled c-MET” for “(Cy5)-labeled EGFR”, “the Reference Material (RM).” for “the RM.”
as §2, with “c-MET Binding” for “EGFR Binding”, “commercial cMet,” for “commercial EGFR,”, “recombinant cMet/HGFR” for “recombinant human EGFR/ErbB1/HER1”, “with c-terminal His-tag” for “with C-terminal His tag”, “Cy5-labeled c-MET.” for “Cy5-labeled EGFR.”, “produce Eu labeled” for “produce Eu-labeled”

[4] = target: T1, recombinant human EGFR/ErbB1/HER1 with …; experiment: competitive TR-FRET (Eu-amivantamab/Cy5-EGFR), EC50 ratio vs Reference Material; Ex. 11 drug product, 6 months at 25 C
Source text: as §1, §2

[5] = target: T1, recombinant human EGFR/ErbB1/HER1 with …; experiment: competitive TR-FRET (Eu-amivantamab/Cy5-EGFR), EC50 ratio vs Reference Material; Ex. 2 Formulation 3 (acetate), T0, 5 C table
Source text: as §1, §2

[6] = target: T2, recombinant cMet/HGFR with c-terminal …; experiment: competitive TR-FRET (Eu-amivantamab/Cy5-c-MET), EC50 ratio vs Reference Material; Ex. 12 drug product with rHuPH20, 0 months, 5 C table
Source text: as §1, with “(Cy5)-labeled c-MET” for “(Cy5)-labeled EGFR”, “the Reference Material (RM).” for “the RM.”
as §2, with “c-MET Binding” for “EGFR Binding”, “commercial cMet,” for “commercial EGFR,”, “recombinant cMet/HGFR” for “recombinant human EGFR/ErbB1/HER1”, “with c-terminal His-tag” for “with C-terminal His tag”, “Cy5-labeled c-MET.” for “Cy5-labeled EGFR.”, “produce Eu labeled” for “produce Eu-labeled”

[7] = target: T1, recombinant human EGFR/ErbB1/HER1 with …; experiment: competitive TR-FRET (Eu-amivantamab/Cy5-EGFR), EC50 ratio vs Reference Material; Ex. 2 Formulation 1 (10 mM histidine), T0, 25 C table
Source text: as §1, §2

[8] = target: T1, recombinant human EGFR/ErbB1/HER1 with …; experiment: competitive TR-FRET (Eu-amivantamab/Cy5-EGFR), EC50 ratio vs Reference Material; Ex. 12 drug product with rHuPH20, 9 months at 5 C
Source text: as §1, §2

B1: amivantamab (bispecific antibody, human IgG1, kappa)
heavy 1: not shown
light 1: not shown
heavy 2: not shown
light 2: DIQMTQSPSSVSASVGDRVTITCRASQGISNWLAWFQHKPGKAPKLLIYAASSLLSGVPSRFSGSGSGTDFTLTISSLQPEDFATYYCQQANSFPITFGQGTRLEIKRTVAAPSVFIFPPSDEQLKSGTASVVCLLNNFYPREAKVQWKVDNALQSGNSQESVTEQDSKDSTYSLSSTLTLSKADYEKHKVYACEVTHQGLSSPVTKSFNRGEC
notes: The samples tested were high concentration (160 mg/mL) formulations, fresh or stored or stressed; also called JNJ-61186372; bispecific EGFR-cMet antibody
EGFR Binding activity relative to Reference Material (%) [1]: 90% | EGFR Binding activity relative to Reference Material (%) [2]: 89% | cMET Binding activity relative to Reference Material (%) [3]: 85% | EGFR Binding activity relative to Reference Material (%) [4]: 57% | EGFR Binding % activity relative to RM [5]: 103% | cMET Binding activity relative to Reference Material (%) [6]: 91% | EGFR Binding % activity relative to RM [7]: 103% | EGFR Binding activity relative to Reference Material (%) [8]: 87%
